± gives the uncertainty stated by the source.

The nature of this series: amyloid nucleation score (Sup35N fusion, yeast selection) (log enrichment); library NNK3; higher = more nucleation; inactive = no reads after selection. In short, it runs like this: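 Yeast lacking psi expressed peptides of 20 random codons fused to Sup35N, received 100 μM copper sulfate for 24 hours, and were then grown for 7 days at 30°C on medium lacking adenine and uracil. Illumina sequencing of input and output plasmid inserts provided the reads. Nucleation scores are DiMSum log enrichments of output over input, centred on the mode of non-aggregating sequences. Any sequence with under 100 input reads was excluded.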
FFLVLNSACME: the amyloid nucleation score was found to be 0.058 ± 0.36. Regarding VLGWGSIVMNDEGELSVGMV, the amyloid nucleation score entry is “inactive”. In turn, SSGHAGGYINYSCTFSAYRM registered an amyloid nucleation score of 0.786 ± 0.19. With IGNLLLGCRPSQNSLRAHTS the entry was “inactive”; with GIFIKFGYR, “inactive”. With QLNGCYCQFWMMKARTTKFH the figure was 2.86 ± 0.054. For the substance LSVLTL, the amyloid nucleation score result was “inactive”. The figure for GLSCDYCTNLVMCCDPQL is 0.06 ± 0.25; for IYGWGRRFRTRR it is “inactive”; for RMILNMCCTITDRKCHSVSD it is 2.39 ± 0.055. With RYGVWLTCYVRAKLM the entry was “inactive”; with NDFSKGLCMWTFNWNDTYDQ, 1.75 ± 0.077. The entry for NYFGPGKQWPID is “inactive”. YSFRCPGFNYYL: the amyloid nucleation score result is “inactive”. Take VSFCGTPFFYHWRHSNWLFK: the amyloid nucleation score result was “inactive”.

For VDNSFEYIWDLFTVDHMSGA, the amyloid nucleation score entry was “inactive”.

For the substance RHVVGCSYNVIGCFYVVLRI, the amyloid nucleation score was 1.84 ± 0.083. The entry for WVVWEM is “inactive”.

As to WPESIFKLRYRSGCCTEVND, the amyloid nucleation score entry was “inactive”. For the substance WTRGNRHVVLQLLGQVSF, the amyloid nucleation score entry was “inactive”. The entry for SLRSFECFSSCTGLWCMLWG is “inactive”; for YFRYIWEHMLVYGRVAKDDP it is “inactive”.

For EGFFYCCHFFRLYYNVVVLL, the amyloid nucleation score is 2.02 ± 0.064. With ISVIYLS the entry was “inactive”; with LILCRCCSGVYRTRVMKLLL, “inactive”. The entry for SWGMLSY is “inactive”; for CCSKFHAQN it is “inactive”; for YLNSDYSMKFTRWY it is 1.1 ± 0.12. For VEVRVYTFF, the amyloid nucleation score came to 2.23 ± 0.074.

AVSLGVTRSKIRLASKVRVD: the amyloid nucleation score entry is “inactive”. The entry for VKYSLALVSGNRARGYRRCG is “inactive”; for PMQTSNLNYCVCYCCAVRTF it is 0.88 ± 0.34. Take DNSSLSMK: the amyloid nucleation score result was “inactive”. With FVWNERWKIRLYLMSFGRGR the figure was 2.35 ± 0.065. With QWKSSLDWRRCW the entry was “inactive”. The entry for WLYRNA is “inactive”; for TTEFKIDR it is “inactive”; for RIRFKRGVPSVVAHVVLR it is “inactive”. For the substance FCYGSFGGLRELYCC, the amyloid nucleation score result is “inactive”. With TFCLFRS the figure was -0.343 ± 0.63. With FSLFLTLFHFFHTRLAACLL the entry was “inactive”; with FSYLLYRRNDTCPQALRLRR, “inactive”. The substance VTSAPNKCFNLFYVNWDHNN showed an amyloid nucleation score of 0.784 ± 0.17. With YIVLAPCWCHIGSIDLAVPH the figure was 3.01 ± 0.06; with PYESHDEGQGNATM, “inactive”; with HGIGFDDVASG, -0.045 ± 0.88. As for FYPKQYQKLSYVWWY, the amyloid nucleation score entry is “inactive”. With MTLRRKLSMTAV the entry was “inactive”; with IGDNCCIWMLDVHSVTLVSE, 0.329 ± 0.2.

Take SGFDYV: the amyloid nucleation score entry was “inactive”. The figure for CRCPSYMFHA is 0.703 ± 0.17; for DLWAIGWGPFRVCSLLPWPL it is “inactive”; for RSYVTILDAFSWIM it is -0.239 ± 0.66.

RSTVLIPWVDNTCTDQSSGW showed an amyloid nucleation score of 0.25 ± 0.21. As to YLRAAIL, the amyloid nucleation score result was “inactive”. The entry for QNVRLTMLLFRNKVYS is “inactive”; for SLCRSLGLGLLAPYRFFTWR it is “inactive”; for GISSKFRSPNRGNCYYRDIL it is “inactive”. The entry for CDIRAAGSKLTDYPLSTRAS is “inactive”; for CVWILSQLG it is -0.797 ± 1.9. The entry for CRCMTR is “inactive”; for SAIRMPAYDYTWRGLYGDKK it is “inactive”.

Regarding TRFVTRNDMYLRYILVCRVA, the amyloid nucleation score result is “inactive”. With RPPMDEICSNFRSRTLNQSK the entry was “inactive”; with RWFQRWEIKTNAHLLTTLNM, “inactive”. The entry for TFYSSML is “inactive”; for FDFESRKLVVGICGCSQAGL it is “inactive”. With GCIRLGLNSVGVNNIVA the entry was “inactive”; with HAFEYVFISVTYQFNVKVIV, “inactive”; with VYYACGMDVKNFWELRLWGD, 1.99 ± 0.063. With DPTSLGRQRLTRDKIPQNWS, the amyloid nucleation score entry was “inactive”. As for TGYAFFHEAS, the amyloid nucleation score result was “inactive”. As for WAVIFT, the amyloid nucleation score result is “inactive”. The figure for MEYSRVVAL is -0.421 ± 0.66; for EMLKVLVHS it is “inactive”. With GSLMTRRDLRKSPILIYRDG the figure was -0.819 ± 0.75; with RLYAALMFSSVRLCACVALV, “inactive”. For the substance ISSAYPRNICRVCGPRTR, the amyloid nucleation score entry is “inactive”. With AYALALCLRE the entry was “inactive”; with NMLYTKRNTVSSALVIYCVN, “inactive”. With IIPYHEFIVGALVSHRWCQD the entry was “inactive”; with AGWGLLQSCRRFWEWCG, “inactive”. Turning to CFPASCIQ, the amyloid nucleation score entry is “inactive”. The entry for ANSYHWTVFVRMFSQDIVNI is “inactive”; for RWYWDHVRIDTYVVHSRTWR it is 0.979 ± 0.13; for CSGQVQ it is “inactive”.

With DFTLTPMWRHFEGFNKVAWG, the amyloid nucleation score entry is “inactive”. With TVEQYWRNEREWF the entry was “inactive”.

Turning to IAQILDVQFSVHAIGVSRDM, the amyloid nucleation score entry was “inactive”. With LDNVR the entry was “inactive”; with ILYLITFAELCWKSRHWHLG, “inactive”; with YEWSYCFNYLCHHYDTNWQR, 2.96 ± 0.056.

With RINSRHLLNVLAVRKTIQGS, the amyloid nucleation score result was “inactive”. With SNSRVGIFWDRLVFRYCRGM the figure was -0.5 ± 1; with LSSDGFYFNTEYL, “inactive”; with ASTTVGCVYYTLVLIG, 1.98 ± 0.09. GYFSLPIGGVVRTGVMLDE: the amyloid nucleation score entry was “inactive”.

In the case of WHGYYMFLW, the amyloid nucleation score entry was “inactive”. The entry for SGFPMVSIFESSI is “inactive”; for VEATSTRGDTAPVPERGMLG it is -1.01 ± 1.7; for RSRLAGFSNYFCMKCVIAAG it is “inactive”. With WLRSVLLRVTLLNSWHSWVS the entry was “inactive”. With FIIISIYGCIIVRWTKRAWG the entry was “inactive”. For the substance FLAVLNLPGCGMDMRNLINL, the amyloid nucleation score result is “inactive”.

Turning to IVKCLYVVCV, the amyloid nucleation score entry is “inactive”. The entry for LFAAYCFVYDIQFTRVPGAW is “inactive”; for TICPWNATLGGKGDRSMK it is “inactive”; for SCSGAMTLWFRQPALKHIL it is “inactive”. The figure for SSGAQQCILISSLVLNEDWL is -0.46 ± 0.76; for FLNCSSQKNATPHILFNGGM it is “inactive”; for LTWLYDDDVSKFRTLLKFRS it is “inactive”. The entry for YSCFVRHCVDRFVRNDSDQT is “inactive”; for YLTMLWLFHLRERAALMGLN it is “inactive”; for LSAFVQDVLNVIQMLTEREF it is “inactive”. Take TYEVRTCWDWQRMGSMYLAR: the amyloid nucleation score entry is “inactive”.

Consider YTRISTIFGYSAMVQFMPCQ, for which the amyloid nucleation score entry was “inactive”. With VFTVF the entry was “inactive”; with RRWGFCTLVIVCRAGCYVLS, “inactive”; with YISLT, “inactive”. With RWFRTVGKFFGHIFS the figure was 0.039 ± 0.45. Regarding LREVRTAVSLGQMGRGLQA, the amyloid nucleation score result was “inactive”.

FFSTLVYNRRIVCWFRSGR yielded an amyloid nucleation score of -1.49 ± 2.5. With YNFTSFLLIAGNAGSSSSRK the figure was 2.04 ± 0.073. With FSFNAG the entry was “inactive”; with NSCIFQTRMSGSYETVYHAP, 0.054 ± 0.45; with LRFRTDFSSASNK, 1.18 ± 0.081. In the case of PTDIGGNPAGPGEFLIGTGW, the amyloid nucleation score result was “inactive”. With SKLFFRNTLVSIISM the entry was “inactive”. With YGRRKYSWAVWICKHIGAYG the entry was “inactive”. With YILMDFSYADLSFVLEIFFA the figure was 0.09 ± 0.64; with FRYLNLKKDD, “inactive”; with TKVNL, “inactive”. TANCLVCVTCSGLMRTT registered an amyloid nucleation score of 2.82 ± 0.054. The entry for CSTISVTLALV is “inactive”.

The record behind these values is the supplement of paper PMC12042874.
